Test results: the supplement of paper PMC6757056
± gives the standard deviation of the averaged measurements.

B1: library; a variant is named by its letters at N, in order (parent)
chain: GCUGUCACCGGUGCUUGGUACGUUAUAUUCAGCCGGUCUGAUGAGUCUNNNNNNAGACGAAACAGC

Legend:
[1] = variants of: B1; assay: FACS-Seq fitted mean relative fluorescence mCherry/BFP without ligand (log10 relative fluorescence); HEK293T overexpressing SLC46A1; higher = higher reporter protein expression; settings: without (6R,S)-folinic acid; ligand present: no
In short: (§1)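 With or without ligand for 48 h, enriched HEK293T libraries carrying a lentiviral ribozyme-switch mCherry reporter and EF1α-BFP were sorted into 6 mCherry/BFP bins. Bin genomic DNA was amplified by PCR, barcoded and sequenced on MiSeq. Fluorescence was taken from normal fits to the resulting bin counts. Each fitted mean of log10(mCherry/BFP) was scaled to five spiked-in control ribozymes.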

[2] = variants of: B1; assay: normalized RNA/DNA level without ligand (relative to sTRSVctl = 100) (log10 (% of sTRSVctl)); HEK293T overexpressing SLC46A1; higher = less ribozyme self-cleavage, higher mRNA level; settings: without (6R,S)-folinic acid; ligand present: no
In short: (§2)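 For each 6-well well, 4 µg of library plasmid encoding mCherry-linked ribozyme switches, or eGFP-linked ones in some ligand experiments, was transfected into HEK293T. Any ligand was added 1 h before transfection, and RNA was extracted with EDTA 72 h after it, then reverse-transcribed, amplified, barcoded and sequenced. RNA level was obtained by dividing RNA reads by DNA reads, normalizing to a spiked-in non-cleaving sequence or to the top sequences, then scaling and log-transforming. The top set was 25 sequences, scaling was ×100 with log10, and ≥100 DNA reads were required.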

[3] = variants of: B1; assay: FACS-Seq fitted mean relative fluorescence mCherry/BFP with ligand (log10 relative fluorescence); HEK293T overexpressing SLC46A1; ligand concentration (+) FACS-Seq: 6 mM; higher = higher reporter protein expression; settings: with (6R,S)-folinic acid; ligand present: yes
In short: as §1

[4] = variants of: B1; assay: normalized RNA/DNA level with ligand (relative to sTRSVctl = 100) (log10 (% of sTRSVctl)); HEK293T overexpressing SLC46A1; ligand concentration (+) RNA-Seq: 6 mM; higher = less ribozyme self-cleavage, higher mRNA level; settings: with (6R,S)-folinic acid; ligand present: yes
In short: as §2

| Variant | FACS-Seq fitted mean (log10) [1] | normalized RNA/DNA level without ligand (log10) [2] | FACS-Seq fitted mean (log10) [3] | normalized RNA/DNA level with ligand (log10) [4] |
| --- | --- | --- | --- | --- |
| GCUGUCACCGGUGCUUGGUACGUUAUAUUCAGCCGGUCUGAUGAGUCUGGAGAUAGACGAAACAGC [GGAGAU] | 0.0885 ± 0.2 | 1.959 ± 0.0067 | -0.253 ± 0.085 | 1.99 ± 0.049 |
| GCUGUCACCGGUGCUUGGUACGUUAUAUUCAGCCGGUCUGAUGAGUCUGGAGACAGACGAAACAGC [GGAGAC] | 0.571 ± 0.081 | 2.0007 ± 0.00018 | 0.512 ± 0.3 | 2.009 ± 0.0055 |
| GCUGUCACCGGUGCUUGGUACGUUAUAUUCAGCCGGUCUGAUGAGUCUGGAGAAAGACGAAACAGC [GGAGAA] | 0.29 ± 0.13 | 1.961 ± 0.013 | 0.201 ± 0.0069 | 2.01 ± 0.022 |
| GCUGUCACCGGUGCUUGGUACGUUAUAUUCAGCCGGUCUGAUGAGUCUGGACGAAGACGAAACAGC [GGACGA] | 0.242 ± 0.039 | 2.022 ± 0.011 | 0.493 ± 0.027 | 2.042 ± 0.011 |
| GCUGUCACCGGUGCUUGGUACGUUAUAUUCAGCCGGUCUGAUGAGUCUGGACGUAGACGAAACAGC [GGACGU] | 0.583 ± 0.13 | 1.955 ± 0.015 | 0.529 ± 0.32 | 1.95 ± 0.024 |
| GCUGUCACCGGUGCUUGGUACGUUAUAUUCAGCCGGUCUGAUGAGUCUGGAGCCAGACGAAACAGC [GGAGCC] | 0.129 ± 0.011 | 2.0238 ± 0.0014 | 0.0129 ± 0.069 | 2.026 ± 0.02 |
| GCUGUCACCGGUGCUUGGUACGUUAUAUUCAGCCGGUCUGAUGAGUCUUGAGAUAGACGAAACAGC [UGAGAU] | 0.457 ± 0.23 | 1.83 ± 0.043 | 0.572 ± 0.015 | 1.98 ± 0.041 |
| GCUGUCACCGGUGCUUGGUACGUUAUAUUCAGCCGGUCUGAUGAGUCUUGAGAAAGACGAAACAGC [UGAGAA] | 0.5 ± 0.038 | 1.917 ± 0.011 | 0.533 ± 0.26 | 1.98 ± 0.026 |
| GCUGUCACCGGUGCUUGGUACGUUAUAUUCAGCCGGUCUGAUGAGUCUUGAGAGAGACGAAACAGC [UGAGAG] | 0.384 ± 0.054 | 1.689 ± 0.012 | 0.526 ± 0.022 | 1.92 ± 0.02 |
| GCUGUCACCGGUGCUUGGUACGUUAUAUUCAGCCGGUCUGAUGAGUCUUGAGCGAGACGAAACAGC [UGAGCG] | 0.157 ± 0.15 | 1.736 ± 0.012 | 0.218 ± 0.39 | 1.98 ± 0.024 |
| GCUGUCACCGGUGCUUGGUACGUUAUAUUCAGCCGGUCUGAUGAGUCUAGACCAAGACGAAACAGC [AGACCA] | 0.1 ± 0.31 | 2.05 ± 0.0039 | 0.262 ± 0.072 | 2.03 ± 0.028 |
| GCUGUCACCGGUGCUUGGUACGUUAUAUUCAGCCGGUCUGAUGAGUCUAGACCUAGACGAAACAGC [AGACCU] | 0.618 ± 0.15 | 2.02 ± 0.041 | 0.641 ± 0.01 | 2.05 ± 0.027 |
| GCUGUCACCGGUGCUUGGUACGUUAUAUUCAGCCGGUCUGAUGAGUCUGGACUAAGACGAAACAGC [GGACUA] | 0.287 ± 0.07 | 1.989 ± 0.0053 | 0.202 ± 0.044 | 1.97 ± 0.033 |
| GCUGUCACCGGUGCUUGGUACGUUAUAUUCAGCCGGUCUGAUGAGUCUUGACGGAGACGAAACAGC [UGACGG] | -0.24 ± 0.039 | 1.748 ± 0.0057 | 0.0392 ± 0.065 | 1.99 ± 0.044 |
| GCUGUCACCGGUGCUUGGUACGUUAUAUUCAGCCGGUCUGAUGAGUCUUGACGAAGACGAAACAGC [UGACGA] | 0.311 ± 0.052 | 1.9519 ± 0.0017 | 0.493 ± 0.015 | 2.04 ± 0.014 |
| GCUGUCACCGGUGCUUGGUACGUUAUAUUCAGCCGGUCUGAUGAGUCUUGACGCAGACGAAACAGC [UGACGC] | 0.28 ± 0.091 | 2.017 ± 0.0099 | 0.284 ± 0.026 | 2.033 ± 0.017 |
| GCUGUCACCGGUGCUUGGUACGUUAUAUUCAGCCGGUCUGAUGAGUCUAGACGCAGACGAAACAGC [AGACGC] | 0.389 ± 0.13 | 2.018 ± 0.016 | 0.336 ± 0.11 | 2.01 ± 0.042 |
| GCUGUCACCGGUGCUUGGUACGUUAUAUUCAGCCGGUCUGAUGAGUCUAGACGAAGACGAAACAGC [AGACGA] | -0.49 ± 0.11 | 1.99 ± 0.015 | -0.617 ± 0.18 | 2.02 ± 0.03 |
| GCUGUCACCGGUGCUUGGUACGUUAUAUUCAGCCGGUCUGAUGAGUCUGGACCGAGACGAAACAGC [GGACCG] | 0.438 ± 0.24 | 2.065 ± 0.0084 | 0.0255 ± 0.12 | 2.02 ± 0.031 |
| GCUGUCACCGGUGCUUGGUACGUUAUAUUCAGCCGGUCUGAUGAGUCUUGACUGAGACGAAACAGC [UGACUG] | 0.14 ± 0.2 | 1.857 ± 0.0074 | 0.368 ± 0.08 | 1.99 ± 0.054 |
| GCUGUCACCGGUGCUUGGUACGUUAUAUUCAGCCGGUCUGAUGAGUCUCGAGAAAGACGAAACAGC [CGAGAA] | 0.311 ± 0.059 | 1.9567 ± 0.0017 | 0.426 ± 0.19 | 2.01 ± 0.039 |
